Here are results for 2 variants from paper PMC8931434.

Sequences and labels used below:
B1: CerS2-HA [not stated] / FATP2-Flag [human] (parent)
chain 1: MLQTLYDYFWWERLWLPVNLTWADLEDRDGRVYAKASDLYITLPLALLFLIVRYFFELYVATPLAALLNIKEKTRLRAPPNATLEHFYLTSGKQPKQVEVELLSRQSGLSGRQVERWFRRRRNQDRPSLLKKFREASWRFTFYLIAFIAGMAVIVDKPWFYDMKKVWEGYPIQSTIPSQYWYYMIELSFYWSLLFSIASDVKRKDFKEQIIHHVATIILISFSWFANYIRAGTLIMALHDSSDYLLESAKMFNYAGWKNTCNNIFIVFAIVFIITRLVILPFWILHCTLVYPLELYPAFFGYYFFNSMMGVLQLLHIFWAYLILRMAHKFITGKLVEDERSDREETESSEGEEAAAGGGAKSRPLANGHPILNNNHRKND
chain 2: not shown

Variants of B1 are the subject of this assay. Nature of the assay: co-immunoprecipitation (anti-HA IP, anti-Flag western blot, quantified). The note with it: with FATP2-Flag [human]; CerS2-/- Hek293T cells, 48 h after transfection; three independent experiments; read off a plot.
As for chain 1 S341A T346A S348A S349A, the response worked out at 6.2.

As for chain 1 H212A H213A, the response is 1.4.
